Experimental data as given in the nanobody polyreactivity screen of Harvey et al. (2022).

Assay: yeast display, Sf9 membrane polyspecificity reagent, FACS + sequencing; frameworks hold sequencing errors
Outline: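 Galactose-induced (36–48 hours) yeast carrying a synthetic nanobody display library were exposed to 10% biotinylated, detergent-solubilized Sf9 membrane reagent at 4 °C for 1 hour. FACS followed streptavidin microbead enrichment, using low and high (top ~1%) gates for expression (anti-HA) and reagent binding (streptavidin). Colony PCR, MiSeq 2 × 250 sequencing and CDR-length filtering followed. Labels for polyreactivity reflect the gate of origin.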

Row | Sequence | polyreactivity (PSR sort gate)
1 | QVQLVESGGGLVQAGGSLRLSCAASGRTFTIYAMGWYRQAPGKEREFVASITGSDGSTYYADSVKGRFTISRDNAKNTVYLQMNSLKPEDTAVYYCAAKRYVYPSYRFDYWGQGTQVTVSS | low polyreactivity
2 | HVQLQESAGGLVQAGGSLRLSCAASGNISYSRNMGWYRQAPGKERELVAAIDRGAITYYADSVKGRFTISRDNATNTVYLQIYSLKPEDTAVYYCAAEYHDRWDHRYWGQGTHVTVSS | high polyreactivity
3 | QVQLVDSGGGIVQAGGSLRLSCPASGSTFGSYALGWSRQKPGKEREWVAAITSAGSTNYADSVKGRFTISRDNAKNTVYLQMNSLKPEDTAVYYCNDVRYYSYQYDPEVTHRYGYWGQGSQVTVSS | high polyreactivity
4 | QVQLVESGGGLVQAGGSLRLSCAASGPIFSDYTMGWYRQAPGKERELVAVISRRGTSTYYADSVKGRFTISRDNAKNTVDLQMNSLKPEDTAVYYCAADDNTYKFYYWGQGTQVTVSS | high polyreactivity
5 | QVQLVESGGGLVQAGGSLRLSCAASGSTLYSYAMGWYRQAPGKERELVAAIRRDSGRTYYADSVKGRFTISRDNAKNTVYLQMNSLKPEDTAVYYCAVRKQYSGRYYRAYDYWGQGTQVTVSS | high polyreactivity
6 | QVQLVESGGGLVQAGGSLRLSCAASGGIFGGYAMGWYRQAPGKEGELVPVITSGGSTYYADSVKARFTISRDNAKNTVYLQMNSLKPEDTAVYYCAADGHSYSYSTYDYWGQGTQVTVSS | low polyreactivity
7 | QVQLVESGGGLVQAGGSLRLSCAASGSTSGKNAMGWYRQAPGKERELVAVITYSGSRTYYADSVKGRFTISRDNAKNTVYLQMNSLKPEDTAVYYCAAVGGGVSFRGNYWGQGTQVTVSS | high polyreactivity
8 | QVQLVESGGGLVQAGGSLRLSCASSGLTFYGNAMVWYRPAPGKERELVAAISSSGGTTYYADSVKGRFTISRDNAKNTVYLQMTSLKPEDTAVYYCAARPSGGYESTRTRDYWGQGTQVTVSS | low polyreactivity
9 | QVQLVESGGGLVQAGGSLRLSCAASGIIFYLYAMGWYRQAPGKERELVAAISRRGGSTYYADSVKGRFTISRDNAKNTVYLQMNSLKPEDTAVYYCAATIGTFGYGYWGQGTQVTVSS | high polyreactivity
10 | QVQLVESGGGLVQAGGSLRLSCAASGRIFRYYTMGWYRQAPGKERELVAAITWSGGSTYYADSVKGRFTISRDNAKNTVYLQMNSLKPEDTAVYYCAVVYSPSMDYWGQGTQVTVSS | high polyreactivity
11 | QVQLVESGGGLVQAGGSLRLSCAASGGTFRTYTMGWYRQAPGKERELVAAINFRGGSTYYADSVKGRFTISRDNAKNTVYLQMNSLKPEDTAVYYCATPLQQEGDWGQGTQVTVSS | high polyreactivity
12 | QVQLVESGGGLVQAGGSLRLSCAACGRTFVSYSMGWYRQAPGKERELVAAISRSGGRTYYADSVKGRFTISRDNAKNTVYLQMNSLKPEDTAVYYCATIQYGTLARYDYWGQGTQVTVSS | high polyreactivity
13 | QVQLVESGGGLVHAGGSLRLSCAASGSIFDDYAMGWYRQAPGKERELVAAITSGGSTYYADSVKGRFTISRDNAKNTVYLQMNSLKTEDTAVYYRATRYHWSSCFAPVGAYGYWGLGTQVTVSS | low polyreactivity
14 | QVQLQESGGGLMQAGGSQRLSCAASGSISYYSDMGWYRQAPGKEREFVAGIGYGTTTNYADSVKGRFTTSRDNAKNTVYLQMISMKPEDSAVYYCAAYQGNGYEFYYWGQGTQVTVRS | low polyreactivity
15 | QVQLVESGGGLVQAGGSLRLSCAASGSIFYTNAMGWYRQAPGKEMEFVASITYRGSNTYYADSVKGRFTISRDNAKTTVYLQMNSLKPEDTAVYYCGADSFYYRPEYDYWGLGTQVTVSS | low polyreactivity
16 | QVQLVESGGGLVQAGGSLRLSCAASGSILTLYSMGWYRQAPGKERELVAAISSTGGRTYYADSVKGRFTISRDNAKNTVYVQMNSLKPEDTAFYYCAARGWGGLRSYGYYYWGQGTQVTVSS | high polyreactivity
17 | QVQLVESGGRLVQAGGSLRLSCAASGRIFTWYAMGWYRQAPGKERELVAAISWTGGTTYYADSVKGRFTISRVNAKNTVYLQMNSMKPEDTEVYYCNKVVGFRSNFGGYGYCGQGTQVTVSS | high polyreactivity
18 | QVQLVESGGGLVQAGGSLRLSCAASGSTFLKNAMGWYRQAPGKERELVAAISYSTTRTYYAVSVKGRFTISRDNAKNTVYLQINSLKPEDTAVYYCAARYDRSSKRNYWGQGTQVTVSS | low polyreactivity
19 | QVQLVESGGGLVQAGGSLRLSCAASGLIFRSYAMGWYRQAPGKERELVARISIRGGSTYYADSVKGRFTISRDNAKYTVYLQMNSLKPEDTAVYYCGAVGYFGGFRYDYWGQGTQVTVSS | high polyreactivity
20 | QVPLAETGGGLVQAGGSLRLSCASSGSIYRYAMGWYRKEPGKEREFVAANTWNGGSTYYADSVKGRLTRSLDYAKNTVYLPMNSLKPEDTAVYNCAADWSYFRRHFDYWVQGTQVTVSS | high polyreactivity
21 | QVQLVESGGGLVQAGGSLRLSCAASGRILYSYTMGWYRPAPGKEREFVAAITRSGGGTYYADSVKGRFTISRDNAKNTVYLQMNSLKPEDTAVYYCAATRNPYRRSNYDYWGQGTQVTVSS | high polyreactivity
22 | QVQLVESGGGLVQAGGSLRLSCAASGFIFRDNAMGWYRQAPGKERELVASIRSSGGRTYYADSVKGRFTISRDNAKNTVYLQMNSLKPEDTAVYYCARRWYPVTPYARMYYWGQGTQVTVSS | low polyreactivity

Row | Sequence | polyreactivity (PSR sort gate)
23 | QVQLVESGGGLVQAGGSLRLSCAASGFIFWWYAMGWYRQAPGKERELVATITASVGSTNYADSVKGRFTISRDNAKNTVYLQMNSLKPEDTAVYYCATDIIGAIRDWDHTRMDYWGQGTQVTVSS | low polyreactivity
24 | QVQLVESGGGLVQAGGSLRLSCAASGSICYDDMGWYSQAPGKERELVAAITWSGGSTYYADSVKGRFTISRDNAKNTVYLQMNSLKPEDTAVYYCAAIFGYGSTWWRWGKDDYWGQGTQVTVSS | high polyreactivity
25 | QVQLVESGGGLVQAGGSLRLSCAASGFTFSGYDIGWYRQAPGKERELVAGISSGGVSTTYADSVKGRFTISRDNAKNTVYLQMNSLKPEDTAVYYCNAEWTSFDWGQGTQVTVSS | low polyreactivity
26 | QVQLVESGGGLVQAGGSLRLSCAASGRIFWYYDMGWYRQAPGKERELVAAITSGGRTYYADSVKGRFTISRDNAKNTVYLQMNRLKPEDTAVYYCAAEGFYTTGSPYSGGLDYWGQGTQVTVSS | low polyreactivity
27 | QVQLVESGGGFVQAGVSLRLSCAASGLILVPNTMGWYRQAPGKERELVATITNGGSTNYADSVKGRFTISRDNAKNTVYLQMNSLKPEDTAVSYCNADHSYHIASTRHVDYWGQGTQVTVSS | low polyreactivity
28 | QVQLVESGGGLVQAGGSLRISCAASGSTFVSYAMGWYRQAPGKERELVATISWRGGSTYYADSVKGRFTISRDNAKNRDYLHMNSLNPEDTAVYYCAADLWHSQYYYGYEYWGQGSQVTVSS | low polyreactivity
29 | QVQLVESGGGLVQAGGSLRLSCAASGRTFASYARGWYRQAPGKERELVAVITRGVRTYYADSVKGRFTISRDNAKNTVYLQMNSLKPEDTAVYYCAKERYNANYDTSLYDYWGQGTQVTVSS | low polyreactivity
30 | QVQLVESGGGLVQAGGSLRLSCAASGRTFWYYAMGWYRQAPGKERELVAAITSGGSTNYADSVKGRFTISRDNAKNTVYLQMNSLKPEDTAVYYCAVDGLGGREGYWGQGTQVTVSS | high polyreactivity
31 | QVQLVESGGGLVQAGGSLRLSCAASGRIFASYAMGWYRQAPGKERELVAAIDRTDSTYYADSVKGRFTISRDNAKNTVYLQMNSLKPEDTAVYYCAADEYYTFSSFELRRMDYWGQGTQVTVSS | low polyreactivity
32 | QVQLVESGGGLVQAGGSLRLSCAASGRTFTYYAMGWYRQAPGKERELVAAITWSGGSTYYADSVKGRFTISRDNAKNTVYLQMNSLKPEDTAVYYCAAVDADYYYWGQGTQVTVSS | high polyreactivity
33 | QVQLVESGGGLVQAGGSLRLSCAASGSIIDYYAMGWYRPAPGKERELVAAISESSDSTYYADSVKGRFTISRDNAKNTVYLQMNSLTPEDTAVYYCAADSLTPKSASDYWGQGTQVTVSS | low polyreactivity
34 | QVQLVETGGGLVQAGGSLRLSCAASGYILINAMGLYRQAPGKERELVASISWSSGSTYYADSVKGRFTISRDNAKNTVFLQMNSLKPEDTAVYYCAATAWDRWSYRYEYWGQGTQVTVSS | low polyreactivity
35 | QVQLVESGGGLVQAGGSLRLSCAASGLTLETIAMGGYRQAPGKERELVAGITYSGGTTYYADSVKGRFTISRDNAKNTVYLQMNSLKPEDTAVFYCAAHTRTSGHIYWGQGTQVTVSS | low polyreactivity
36 | QVHLVESGGGLVHAGGSLRLSSAASGFIFRYYAMGWYRQAPGKERELVAAITSLGGRTYYADSVNGRFTISRDYAKNTVYLQMNSLKPEDTAVFYCAKSTRGTYDMGFWGQVTQVTVSS | high polyreactivity
37 | QVQHVESGGGLVQAGGSLRLSCDAYGSTFYYYAMGWYRQAPGKERELVASISRGGSTNYAYSVKGRFTISRDNAKNTVYLQMNSLKAEDTAVYYCNADRYLRPKSWWTVYYERDYWGQGTQVTVSS | low polyreactivity
38 | QVQLVESGGGLVQAGGSLRLTCAASGRTFGPYAMGWYRPAPGKERELVAAIRYIDDSTFYADSVKGRFTISRDNAKNTVYLQMNSLKPEDTAVYYCAAQRRVVGRHGLSLIRYDYWGQGTQVTVSS | low polyreactivity
39 | QVQLVESGGGLVQAGGSLRLSCAASGRTLGGYTMGWYRQAPGKEREVVAGISFRGDSTYYADSVKGRFTLSRANAKNTVYLQMNSLKPEDTAVYYCNARGTPWRYGGDYWGQGTQVTVSS | low polyreactivity
40 | QVQLVESGGGLVQAGGSLRFSCAASGFIFTYNAMGWYRQAPGKERELVAAITRNGVSTHYADSVKGRFTISRDNAKNSVYLQMNSLKPEDTAVYYCAADPRGWRHYYWGQGTQVTVSS | low polyreactivity
41 | QVQLVDSGGGLVQAGGGLRLSCAASGRIFVKYGMGWYRQAPGKERELVAAISWTGGSTYYADSVKGRFTISRDNEKNTVYLQMNSLKPEDTAVYYCAKSFGIWHARWLTYDYWGQGTQVTVSS | low polyreactivity
42 | QVQLVESGGGLVQAGGSLRLSCAASGIILYPYAMGWYRQAPGKERELVAAISWSGGSTYYADSVKGRFTISRDKAKNTVYLQMNSLKPEDTAVYYCNARYYGPSWNSYDYWGQGTQVTVSS | high polyreactivity
43 | QVQLVESGGGLVQAGGSLRLSCAASGSIFLWYDMGWYRQAPGKERECVASITRSGGSTYYADSVKGRFTISRDNAKNTVYLQMNSLKPEDTAVYYCAASGATGRYSVYYHGYTYDYWGQGTQVTVSS | low polyreactivity
